Experiments:
[1] = target: influenza A hemagglutinin
[2] = test system: P. falciparum merozoite surface protein 1 (MSP-1) subunits p83, p38, p42; test: ELISA of biotinylated VHHs on plate-bound MSP-1 subunits; type: binding, Plasmodium falciparum; details: streptavidin-HRP and TMB
Description: (§1) FIGS. 13A-13D: VHH nanobodies bind specifically to Plasmodium falciparum: merozoite surface protein 1 (MSP-1). FIG. 13A: Schematic of the PfMSP-1 pro-peptide and the four inclusive subunits: p83, p30, p38, and p42. FIG. 13B: Purified […] B4, anti-p38 B8, anti-p42 A6, and anti-p42 G11 VHHs were biotinylated and these VHHs were incubated with plate bound subunits proteins as indicated. Binding ELISA was detected by using streptavidin-HRP and tetramethylbenzidine (TMB). Data are represented as optical density (OD). Error bars show SEM. FIG. 13C: Western blot of VHHs against the three PfMSP-1 subunits, the full length p190 pro-peptide, and some 3D7 lysates from −38-44 hour 3D7 schizonts. FIG. 13D: Flow cytometry on synchronized ˜38-44 hour 3D7 schizonts using fluorescently (Cy5) labeled VHHs.
(§2) Purified VHH nanobodies were biotinylated and tested for specificity toward isolated MSP-1 subunits. Anti-p83 B4, anti-p38 B8, anti-p42 A6, and anti-p42 G11 VHHs were each incubated with plate-bound p83, p38, p42, and p42, and binding to the plates was detected by an enzyme-linked immunoassay (ELISA) using streptavidin-horseradish peroxidase (HRP) and tetramethylbenzidine (TMB). […] Finally, purified VHHs were tested against live ˜38-44 hour 3D7 schizonts in a flow cytometry assay.

[3] = test system: PfMSP-1 subunits, full length p190 pro-peptide; type: binding, Plasmodium falciparum
Description: as §1, with “FIG.” for “FIGS. 13A-13D: VHH nanobodies bind specifically to Plasmodium falciparum: merozoite surface protein 1 (MSP-1). FIG.”
as §2

MICA*009 = type: binding, human
MICA*008 = MICA*008 (Homo sapiens, UniProt Q29983, C59Y/G229S/K148E/K196E/M152V/Q274R/S238T/T236I/T47A/W233R); type: binding
MICA*008, sequence (Q29983 24-307 T47A/C59Y/K148E/M152V/K196E/G229S/W233R/T236I/S238T/Q274R): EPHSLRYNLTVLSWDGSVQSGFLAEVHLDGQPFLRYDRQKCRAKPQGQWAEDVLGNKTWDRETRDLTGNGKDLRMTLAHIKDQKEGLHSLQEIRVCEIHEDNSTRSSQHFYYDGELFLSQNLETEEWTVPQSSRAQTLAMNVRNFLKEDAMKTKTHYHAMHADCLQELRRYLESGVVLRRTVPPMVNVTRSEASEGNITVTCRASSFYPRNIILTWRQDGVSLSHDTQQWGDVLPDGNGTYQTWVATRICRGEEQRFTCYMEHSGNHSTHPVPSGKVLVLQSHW

[4] = test system: purified MICA*009 antigen in whole cell lysate; test: Immunoblot with biotinylated anti-MICA nanobodies; type: binding, human; details: 1 μg/mL, streptavidin-HRP
[5] = test system: empty vector (EV)-transfected B16F10 cells; type: binding; details: biotinylated, streptavidin-PE
MICA*002 = MICA*002 (Homo sapiens, UniProt Q29983, K148E/T47A/W37G); type: binding
MICA*002, sequence (Q29983 24-307 W37G/T47A/K148E): as the sequence (Q29983 24-307 T47A/C59Y/K148E/M152V/K196E/G229S/W233R/T236I/S238T/Q274R) above, with W14G, Y36C, V129M, E173K, S206G, R210W, I213T, T215S, R251Q counted along it

[6] = target: T1, MICA-transfected B16F10 cells (Homo sapiens, UniProt Q29983); test: Flow cytometry of transfected B16F10 melanoma cells; type: binding; details: biotinylated, streptavidin-PE
T1 construct: expressed in transfected cells; host or cells: B16F10 mouse melanoma cells
T1 sequence (Q29983 24-383): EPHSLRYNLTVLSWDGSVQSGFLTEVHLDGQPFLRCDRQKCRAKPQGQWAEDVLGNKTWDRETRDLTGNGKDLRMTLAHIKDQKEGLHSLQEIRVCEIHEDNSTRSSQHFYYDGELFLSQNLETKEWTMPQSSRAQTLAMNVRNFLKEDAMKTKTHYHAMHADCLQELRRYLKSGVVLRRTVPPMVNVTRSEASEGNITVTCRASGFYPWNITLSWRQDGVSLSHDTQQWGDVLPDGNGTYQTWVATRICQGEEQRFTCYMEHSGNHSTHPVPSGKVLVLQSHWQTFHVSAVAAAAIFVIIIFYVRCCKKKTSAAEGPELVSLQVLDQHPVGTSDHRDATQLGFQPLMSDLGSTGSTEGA
Excerpt: (§3) FIGS. 17A-17E: Development of MHC class I polypeptide-related sequence A (MICA)-specific nanobodies. FIG. 17A: Comparison of amino acid sequences of 9 MICA-specific nanobodies that were identified and cloned into a pHen6 expression vector. FIG. 17B: Immunoblots showing specific binding of biotinylated A1 and H3 anti-MICA nanobody clones for purified MICA*009 antigen in whole cell lysate. FIG. 17C: Quantification of ELISA cross-competition assays to determine binding epitopes for anti-MICA nanobodies. A decrease in intensity measured at 450 nm as compared to a single nanobody alone is indicative of binding to the same epitope. Cross-competition is shown for A1 (left) and H3 (right) anti-MICA nanobody clones. FIG. 17D: Quantification of anti-MICA nanobody binding to MICA allelic products as determined by ELISA. A significant increase in intensity measured at 450 nm as compared to uncoated ELISA control is indicative of binding. FIG. 17E: Flow cytometry of B16F10 cells transfected with empty vector, MICA, or MHC class I polypeptide-related sequence B (MICB) using A1 and H3 anti-MICA nanobody clones.
(§4) To further assess whether the isolated anti-MICA VHH nanobodies would bind to MICA on the surface of cells, A1 and H3 nanobody clones were generated against soluble, recombinant MICA*009 and cell binding was assessed by flow cytometry. Binding was assessed using B16F10 melanoma cells transfected to express either MICA or MICB, or an empty vector (EV) as a negative control. Biotinylated A1 and H3 nanobodies were labeled with streptavidin-phycoerythrin (PE) and used for cytofluorimetry of transfected B16F10 cells.

[7] = target: T2, MICB-transfected B16F10 cells (Homo sapiens, UniProt Q29980); test: as above; type: binding; details: biotinylated, streptavidin-PE
T2 construct: expressed in transfected cells; host or cells: B16F10 mouse melanoma cells
T2 sequence (Q29980 23-383): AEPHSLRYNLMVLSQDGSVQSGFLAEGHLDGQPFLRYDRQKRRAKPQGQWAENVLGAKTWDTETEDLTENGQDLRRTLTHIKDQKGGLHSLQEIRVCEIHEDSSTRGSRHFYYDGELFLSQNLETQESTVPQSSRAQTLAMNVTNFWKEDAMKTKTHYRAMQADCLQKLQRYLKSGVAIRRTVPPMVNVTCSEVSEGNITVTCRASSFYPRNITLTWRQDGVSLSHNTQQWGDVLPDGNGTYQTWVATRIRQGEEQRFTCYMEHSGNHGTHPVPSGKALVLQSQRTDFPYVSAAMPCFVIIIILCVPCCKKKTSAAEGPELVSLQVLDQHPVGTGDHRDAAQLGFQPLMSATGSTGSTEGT
Excerpt: as §3, §4

B1: VHHkappa-SD36 conjugated through click chemistry: SD36-azide conjugated to VHHkappa-DBCO through copper-free click reaction (protein)
VHH 1: QVQLVESGGGWVQPGGSLRLSCAASGFTFSDTAMMWVRQAPGKGREWVAAIDTGGGYTYYADSVKGRFTISRDNAKNTLYLQMNSLKPEDTARYYCAKTYSGNYYSNYTVANYGTTGRGTLVTVSSGG
VHH 2: EVQLVESGGGLVQAGGSLKLSCAASGRTYAMGWFRQAPGKEREFVAHINALGTRTYYSDSVKGRFTISRDNAKNTEYLEMNNLKPEDTAVYYCTAQGQWRAAPVAVAAEYEFWGQGTQVTVSSGG
Question: What does the source list for B1?
Answer: affinity for influenza A hemagglutinin, in words [1]: low nanomolar; affinity relative to genetically conjugated VHHkappa-SD36 [1]: higher affinity

B2: genetically fused VHHkappa-SD36: VHHkappa N-terminally linked to SD36 by (GGGGS)3 linker, SEQ ID NO: 5 (protein)
chain: QVQLVESGGGWVQPGGSLRLSCAASGFTFSDTAMMWVRQAPGKGREWVAAIDTGGGYTYYADSVKGRFTISRDNAKNTLYLQMNSLKPEDTARYYCAKTYSGNYYSNYTVANYGTTGRGTLVTVSSAAAGGGGSGGGGSGGGGSEVQLVESGGGLVQAGGSLKLSCAASGRTYAMGWFRQAPGKEREFVAHINALGTRTYYSDSVKGRFTISRDNAKNTEYLEMNNLKPEDTAVYYCTAQGQWRAAPVAVAAEYEFWGQGTQVTVSSGGLPETGGHHHHHH
Question: Which “affinity for influenza A hemagglutinin, in words” value [1] does the source give for B2 here?
Answer: The value was “low nanomolar”.

B3: anti-p42 A6: VHH specific for P. falciparum MSP-1 p42, SEQ ID NO: 7 (protein)
VHH: QVQLVESGGGLVQAGGSLRLSCAASARTFSYYGAAWFRQAPGKEREFVAAVSWNGDDTYYADSVKGRFTISRDNTKNTVSLQMNALKPEDTAVYYCEAAAYGRDWRQSANYVYWGQGTQVTVSSLPETGGHHHHHH
Question: B3 was tested. Which “binding to plate-bound MSP-1 subunits (ELISA)” value [2] did it give?
Answer: Its value is “bind specifically to one subunit”.

Question: And the “binding to MSP-1 subunits and pro-peptide p190 (gel electrophoresis / Western blot)” value [3]?
Answer: The value was “bind to one subunit of MSP-1 and to the MSP-1 pro-peptide (p190), but not to any other subunit”.

B4: anti-p42 G11: VHH specific for P. falciparum MSP-1 p42, SEQ ID NO: 16 (protein)
VHH: QVQLVETGGGLVQAGGSLRLSCVVSGRSLILYGMGWFRQAPGKEREFVAGIVWNGGWTYYADSVKGRFTISRDTAKNTVYLQMNSLKPEDTAVYSCAAGPGDGRRRVAPAEYNYWGQGTQVTVSSLPETGGHHHHHH
Question: For B4, which “binding to plate-bound MSP-1 subunits (ELISA)” value [2] is on record?
Answer: Its value is “bind specifically to one subunit”.

Question: What about the “binding to MSP-1 subunits and pro-peptide p190 (gel electrophoresis / Western blot)” value [3] of the same molecule?
Answer: Its value is “bind to one subunit of MSP-1 and to the MSP-1 pro-peptide (p190), but not to any other subunit”.

B5: A1: VHH specific for MICA, SEQ ID NO: 19 (protein)
VHH: MAQVQLVESGGGLVQPGGSLRLSCAASGFTLDYYDIGWFRQAPGKEREGVSCITSSDGSTYYADSVKGRFTISRDNAKNTVYLQMNSLKPEDTAVYYCAADCTKPQWKSKTEAWGQGTQVTVSSGGLPETGGHHHHHH
Question: Which “binding to MICA variant (ELISA)” value (MICA*009) does the source give for B5 here?
Answer: The value was “observed to bind”.

Question: What about the “binding to MICA variant (ELISA)” value (MICA*008) of the same molecule?
Answer: Its value is “observed to bind”.

Question: And the “luminescent signal on immunoblots” value [4]?
Answer: The value was “strong and specific luminescent signal”.

Question: And the “staining of transfected cells” value [5]?
Answer: Its value is “neither nanobody clone stained”.

Question: What about the “binding to MICA variant (ELISA)” value (MICA*002) of the same molecule?
Answer: Its value is “not observed to bind”.

Question: And the “staining of transfected cells” value [6]?
Answer: Its value is “robust staining”.

Question: And the “staining of transfected cells” value [7]?
Answer: Its value is “neither nanobody clone stained”.

B6: H3: VHH specific for MICA, SEQ ID NO: 24 (protein)
VHH: MAQVQLVETGGGLVQAGGSLRLSCAASGRTFSSYAMGWFRQAPGKEREFVAGISWSGGSTYYGDSVKGRFTISRDNAKNTVYLLMNSLKPEDTAVYYCAADLVRSYGSSWPSLFQFRNPEDVQDGMDYWGKGTLVTVSSGGLPETGGHHHHHH
Question: What does the source list for B6?
Answer: binding to MICA variant (ELISA) (MICA*009): observed to bind; binding to MICA variant (ELISA) (MICA*008): observed to bind; luminescent signal on immunoblots [4]: strong and specific luminescent signal; staining of transfected cells [5]: neither nanobody clone stained; binding to MICA variant (ELISA) (MICA*002): not observed to bind; staining of transfected cells [6]: robust staining; staining of transfected cells [7]: neither nanobody clone stained

B7: B11: VHH specific for MICA, SEQ ID NO: 20 (protein)
VHH: MAQVQLVETGGGLVQPGGSLRLSCAASGFTLDYYAIGWFRQAPGKEREGVSCITSDGNTYYADSVKGRFTISRDNAKNTVYLQMNSLKPEDTAVYYCAADCLSSTWRTNAYLGQGTQVTVSSGGLPETGGHHHHHH
Question: Which “binding to MICA variant (ELISA)” value (MICA*009) does the source give for B7 here?
Answer: The value was “observed to bind”.

Question: What about the “binding to MICA variant (ELISA)” value (MICA*008) of the same molecule?
Answer: The value was “observed to bind”.

Question: What about the “binding to MICA variant (ELISA)” value (MICA*002) of the same molecule?
Answer: Its value is “not observed to bind”.

B8: E9: VHH specific for MICA, SEQ ID NO: 23 (protein)
VHH: MAQVQLVETGGGLVQPGGSLRLSCAASGFTLEHYAIGWFRQAPGKEQEGVSCITSDGDTYYADSVKGRFTISRDNAKNTVYLQMNSLKPEDTAVYYCAADCLSSNWRTSAYWAQGTQVTVSSGGLPETGGHHHHHH
Question: How did the “binding to MICA variant (ELISA)” value (MICA*009) turn out when B8 was run?
Answer: The value was “observed to bind”.

Question: And the “binding to MICA variant (ELISA)” value (MICA*008)?
Answer: The value was “observed to bind”.

Question: What about the “binding to MICA variant (ELISA)” value (MICA*002) of the same molecule?
Answer: Its value is “not observed to bind”.
